Results published in patent US20150141617A1, “PRODUCTION AND PURIFICATION OF ACTIVE EUKARYOTIC FORMYLGLYCINEGENERATING ENZYME (FGE) VARIANTS” (Universität Bielefeld, priority 2013, published 2015).
Blank lines part the entries; values can stand above or below the molecule they belong to.

How the values were obtained:
[1] = biological target: FGE-HA (human formylglycine generating enzyme, wild type, C-terminal HA tag, expressed from pBI-FGE-HA in mammalian cells) (human) (UniProt Q8NBK3); test: cell-based or functional assay
[2] = system: 23-aa long substrate peptide Ac-MTDFYVPVSLCTPSRAALLTGRS-NH2; test: In vitro FGE activity assay (MALDI-ToF MS) with purified recombinant FGE from insect cells; type: biochemical
Protocol: a) fl-FGE-R69A/R72A (SEQ ID NO: 4) is active and e.g. generates FGly within a 23-aa long substrate peptide 16 pmol of the 23 amino acid (aa) long peptide Ac-[…]-NH2 (SEQ ID NO:46) were incubated with 12 ng of fl-FGE-R69A/R72A for 20 min at 37° C. under assay conditions (50 mM Tris, 67 mM NaCl, 15 μM CaCl2, 0.33 mg/mL BSA, 2 mM DTT, pH 9.3 in a total volume of 30 μL).
The reaction was stopped by adding 3 μL of 20% trifluoroacetic-acid (TFA), immediately followed by vortexing and by a short centrifugation at 10000×g. The peptide was purified and concentrated by C18-Zip-Tip treatment. Therefore the Zip-Tip was prepared by pipetting three times 10 μL of 50% acetonitrile, 0.05% TFA in water and three times 10 μL 0.1% TFA in water. The 33 μL sample was pipetted 10 times up and down. The bound peptide was washed by pipetting 10 times 10 μL 0.1% TFA in water and was eluted in 10 μL 50% acetonitrile, 0.05% TFA in water by pipetting 10 times up and down. For MS-analysis the following matrix was prepared freshly: 40 μL of a saturated α-cyano-hydroxycinnamic acid solution in aceton were added to 10 μL of a solution containing 10 mg/mL nitrocellulose in 50% Aceton/50% Isopropanol (v/v). 0.5 μL of the matrix were spotted onto a polished steel target and 1 μL of the purified sample was added. The dried sample spot was analyzed by MALDI-ToF mass spectrometry using the Ultra flextreme spectrometer from Bruker Daltronics. The cysteine containing substrate peptide (2526.28 [M+H]^+) and the FGly containing product peptide (2508.29 [M+H]^+) were detected.
b) fl-FGE-R69A/R72A (SEQ ID NO:4) is able to generate FGly by using GSH as reductant:10 times stock solutions of DTT and GSH were prepared in 20 mM Tris pH 9.3. For the reaction, 13 ng of Baculo-fl-FGE were incubated with 16 pmol of the 23 aa-long substrate peptide, 2 mM DTT or 5 mM reduced glutathione for 15 min at 37° C. under assay conditions (50 mM Tris, 67 mM NaCl, 15 μM CaCl2, 0.33 mg/mL BSA, pH 9.3 in a total volume of 30 μL). The reactions were stopped and prepared further for MS-analysis as described above. The ratio of the intensity of the FGly-product peptide divided by the sum of the substrate and product intensities multiplied with 100 yields %-turnover of the substrate peptide. Based on that, specific activities were calculated.
The dependence of FGly-generating activity of recombinant fl-FGE-R69A/R72A on the reducing agents DTT and GSH were analyzed at pH 9.3 under standard assay conditions (FGE and substrate peptide were incubated at 37° C. in 50 mM Tris/HCl, 67 mM NaCl, and 0.33 mg/ml BSA in 30 μl volume. The reaction was started by addition of substrate) using a MALDI-mass spectrometry based in vitro activity assay (Ennemann et al., 2013 and FIG. 7).
The pH-dependence for in vitro activity of recombinant fl-FGE-R69A/R72A and Δ72-FGE-wt was analyzed under optimal DTT and GSH concentrations. Accordingly, the activity of recombinant fl-FGE-R69A/R72A in the presence of 2 mM DTT, under standard assay conditions, was measured in buffers of pH ranging from pH 6.5 to 11.0 (FIG. 19A). […] In the presence of 5 mM GSH, the maximal activity was also observed at pH 9.3 and a very similar activity profile ranging from pH 7.5 to 11 (FIG. 19B). […] In summary, fl-FGE-R69A/R72A requires less alkaline conditions for optimum activity than Δ72-FGE-wt.

[3] = system: cysteine-containing substrate peptide; test: In vitro FGE activity assay with conditioned media from CHO-FD11 cells; type: biochemical; details: 5 mM GSH vs 2 mM DTT, pH 9.3, conditioned media
Protocol: FGE activity was assayed using conditioned media that contained either secreted fl-FGE (obtained from CHO-FD FGE-His6 cells) or Δ72-FGE (obtained from CHO-FD Tet-On cells after transient co-transfection with pBI-FGE-HA and pIRES-Furin constructs). After expression for 48 h at 1% or 2.5% FCS containing DMEM, the medium was collected and centrifuged at 500×g for 5 min. The supernatant was analyzed by SDS-PAGE and western blotting and aliquots were directly used for activity testing.
The activity assay was performed in triplicates with three sets of conditioned media at pH 9.3 under standard conditions as described earlier (4) with some modifications; no BSA was added to the reaction mixture and 2 mM DTT or 5 mM GSH were used as reducing agents.
The inventors have recently shown that the N-terminal part of FGE (residues 34-68) is essential to activate sulfatases in vivo (12). By contrast, the N-terminal extension was not required for in vitro FGly-generating activity of purified secreted Δ72-FGE. […] To assess the physiological consequence of the N-terminal truncation by furin on the function of FGE, the inventors analyzed the FGly-generating activity of the processed and the unprocessed forms of secreted FGE in the presence of glutathione (GSH), a physiological reductant, or DTT serving as a control. […]

[4] = Stability of purified recombinant FGE upon storage (SDS-PAGE, Coomassie staining or western blotting); type: physicochemical; details: thawing from −80° C. and short-term storage at 4° C.
Protocol: Purified enzymes are preferably stored frozen at −20° C. or −80° C., but it is known that the freeze-thaw cycle can lead to a decrease in the stability of proteins and/or accompanied loss of enzymatic activity. To minimize this effect, it is common to add stabilizing agents to preserve the stability and functionality of proteins during long-term storage. Analyses of conditions that affect the stability of purified recombinant fl-FGE-R69A/R72A and Δ72-FGE-wt were performed. The stability was assessed by analyzing the purified protein by SDS-PAGE and subsequently visualized by Coomassie staining or western blotting using FGE anti-serum as described above.
Generation of truncated FGE was increasingly detected upon removing the imidazole by size exclusion chromatography (Panel SEC, FIG. 17A). To gain further insights, aliquots of the purified fraction from size exclusion chromatography were incubated at 4° C. for either 3.5 h or 20 h in the presence of various additives like NaCl, imidazole, arginine and glycerol and later assessed by western blot using FGE anti-serum.

[5] = biological target: T1, 23 amino acid substrate peptide Ac-MTDFYVPVSLCTPSRAALLTGRS-NH2 (SEQ ID NO: 46)
T1 chain: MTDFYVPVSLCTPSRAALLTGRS

[6] = biological target: the molecule itself; test: size exclusion chromatography (Superdex 200), non-reducing SDS-PAGE and western blot with FGE antiserum
Protocol: FIG. 16: Separation of the recombinant fl-FGE-R69A/R72A monomer and dimer by size-exclusion chromatography. (A) The pooled elution fractions from Ni-NTA purification (SM) were further purified in a Superdex (SD200 10/300 GL) column using Ettan LC system (GE health care). The eluted material in 0.5 ml of running buffer (20 mM Tris, pH 8.0 containing 200 mM NaCl) were collected and analyzed in SDS-PAGE under reducing conditions followed by coomassie staining (B) Equal volume of elution fractions obtained as shown in ‘(A)’ were resolved in SDS-PAGE under non-reducing conditions followed by western blot and membrane decorated with FGE anti-serum. (SM: starting material; FGE: monomer; FGE2: dimer).

[7] = biological target: T2, steroid sulfatase (STS), expressed from pBI-STS in MSDi Tet-On cells (UniProt P08842 22-583, limits assumed); test: cell-based or functional assay
T2 sequence (looked up): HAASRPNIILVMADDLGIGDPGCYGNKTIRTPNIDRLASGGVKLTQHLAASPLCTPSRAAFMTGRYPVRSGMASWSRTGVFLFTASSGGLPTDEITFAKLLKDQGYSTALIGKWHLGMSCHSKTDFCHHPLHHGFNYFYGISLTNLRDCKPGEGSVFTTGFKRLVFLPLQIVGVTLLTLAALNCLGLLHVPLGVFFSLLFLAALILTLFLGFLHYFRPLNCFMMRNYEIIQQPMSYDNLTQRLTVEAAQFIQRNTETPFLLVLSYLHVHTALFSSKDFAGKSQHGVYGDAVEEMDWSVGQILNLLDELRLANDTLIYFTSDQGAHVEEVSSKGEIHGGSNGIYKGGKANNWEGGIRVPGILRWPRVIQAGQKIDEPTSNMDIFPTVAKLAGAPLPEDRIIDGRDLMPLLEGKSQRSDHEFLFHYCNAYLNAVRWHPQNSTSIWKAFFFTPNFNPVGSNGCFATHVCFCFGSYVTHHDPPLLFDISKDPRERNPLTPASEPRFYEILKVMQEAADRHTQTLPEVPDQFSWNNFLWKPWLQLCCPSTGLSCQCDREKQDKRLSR

- share of Δ72-FGE in secretions of CHO-FD11 Tet-On cells co-expressing FGE and the PC (western blot) [1]: 100%
Molecule: human furin (Gene ID 5045), expressed from a pIRES construct in CHO-FD11 cells (from UniProt P09958 108-794)

B1: Δ72-FGE: human FGE that lacks the N-terminal domain (amino acid residues 1-72), SEQ ID NO:6 (protein)
chain: ADLGSSMEFEANAPGPVPGERQLAHSKMVPIPAGVFTMGTDDPQIKQDGEAPARRVTIDAFYMDAYEVSNTEFEKFVNSTGYLTEAEKFGDSFVFEGMLSEQVKTNIQQAVAAAPWWLPVKGANWRHPEGPDSTILHRPDHPVLHVSWNDAVAYCTWAGKRLPTEAEWEYSCRGGLHNRLFPWGNKLQPKGQHYANIWQGEFPVTNTGEDGFQGTAPVDAFPPNGYGLYNIVGNAWEWTSDWWTVHHSVEETLNPKGPPSGKDRVKKGGSYMCHRSYCYRYRCAARSQNTPDSSASNLGFRCAADRLPTMDSGRGSHHHHHHH
modifications: cleaved FGE in position 72 , inacitve FGE
- pH of maximal activity ([2]; 2 mM DTT, MTGC buffer pH 6.5-11.0): ~10
- FGly generation in substrate peptide in presence of DTT ([2]; 2 mM DTT, pH 9.3, 37° C.): converts the cysteine-containing substrate peptide to the FGly-containing product peptide
- dependence of activity on reducing agent (DTT or GSH) ([2]; in vitro, pH 9.3): strictly relies on DTT
- specific activity ([2]; purified from Baculovirus expression system (Example 7)): 70-90 mU/mg
- FGly-generating activity (% substrate turnover) in the presence of GSH normalized to that of DTT (100%) [3]: barely active in the presence of GSH
- molecular integrity after storage [4]: did not lead to any change in the molecular integrity

B2: fl-FGE-R69A/R72A (SEQ ID NO: 4), produced in High Five insect cells (enzyme)
chain: ADEFSQEAGTGAGAGSLAGSCGCGTPQRPGAHGSSAAAHAYSAEANAPGPVPGERQLAHSKMVPIPAGVFTMGTDDPQIKQDGEAPARRVTIDAFYMDAYEVSNTEFEKFVNSTGYLTEAEKFGDSFVFEGMLSEQVKTNIQQAVAAAPWWLPVKGANWRHPEGPDSTILHRPDHPVLHVSWNDAVAYCTWAGKRLPTEAEWEYSCRGGLHNRLFPWGNKLQPKGQHYANIWQGEFPVTNTGEDGFQGTAPVDAFPPNGYGLYNIVGNAWEWTSDWWTVHHSVEETLNPKGPPSGKDRVKKGGSYMCHRSYCYRYRCAARSQNTPDSSASNLGFRCAADRLPTMDSGRGSHHHHHHH
notes: It has four extra N-terminal residues (ADEF), human FGE from S34 with R69A and R72A, and a C-terminal SGRGS-His7; After size exclusion it occurs as a monomer and as a disulfide-bridged dimer; also called Baculo-fl-FGE; recombinant fl-FGE-R69A/R72A
- specific activity, FGly generation in the 23-aa substrate peptide (MALDI-ToF MS), 2 mM DTT as reductant [5]: 24.1±1.7 mU/mg in presence of the control reductant DTT
- specific activity, FGly generation in the 23-aa substrate peptide (MALDI-ToF MS), 5 mM GSH as reductant [5]: 15.6±1.3 mU/mg in presence of GSH
- binding result [6]: binds

B3: FGE-HA (human formylglycine generating enzyme, wild type, C-terminal HA tag, expressed from pBI-FGE-HA in mammalian cells) (enzyme, UniProt Q8NBK3 34-374, looked up, not shown: small tags and cut ends)
chain: SQEAGTGAGAGSLAGSCGCGTPQRPGAHGSSAAAHRYSREANAPGPVPGERQLAHSKMVPIPAGVFTMGTDDPQIKQDGEAPARRVTIDAFYMDAYEVSNTEFEKFVNSTGYLTEAEKFGDSFVFEGMLSEQVKTNIQQAVAAAPWWLPVKGANWRHPEGPDSTILHRPDHPVLHVSWNDAVAYCTWAGKRLPTEAEWEYSCRGGLHNRLFPWGNKLQPKGQHYANIWQGEFPVTNTGEDGFQGTAPVDAFPPNGYGLYNIVGNAWEWTSDWWTVHHSVEETLNPKGPPSGKDRVKKGGSYMCHRSYCYRYRCAARSQNTPDSSASNLGFRCAADRLPTMD
- relative specific activity of STS after co-expression in immortalized MSD Tet-On cells [7]: ~50 fold
